# Test results from patent US5869641.
# pKd: −log10 of the molar value.
# Target: CD4 (extracellular domain, aa 1-370) (Homo sapiens) (UniProt P01730)
# Test: flow
# Conditions: 2'-F on all C and U; +-0.08; multimeric SA-PE complex, 3.2 RNA per SA-PE; L200-CD4 beads, PBS, 2 mM MgCl2, BSA, room temp
sequence,measurement,value
GGGAGACAAGAAUAAACGCUCAANNNNNNNNNNNNNNNNNNNNNNNNNNNNNNNNNNNNNNNNUUCGACAGGAGGCUCACAACAGGC [15th round enriched RNA pool],pKd,8.82
